T1: human glycyl-tRNA synthetase, wild type (GlyRS^WT) (human, UniProt P41250 55-739)
T1 construct: also called WT GlyRS; GARS
T1 sequence: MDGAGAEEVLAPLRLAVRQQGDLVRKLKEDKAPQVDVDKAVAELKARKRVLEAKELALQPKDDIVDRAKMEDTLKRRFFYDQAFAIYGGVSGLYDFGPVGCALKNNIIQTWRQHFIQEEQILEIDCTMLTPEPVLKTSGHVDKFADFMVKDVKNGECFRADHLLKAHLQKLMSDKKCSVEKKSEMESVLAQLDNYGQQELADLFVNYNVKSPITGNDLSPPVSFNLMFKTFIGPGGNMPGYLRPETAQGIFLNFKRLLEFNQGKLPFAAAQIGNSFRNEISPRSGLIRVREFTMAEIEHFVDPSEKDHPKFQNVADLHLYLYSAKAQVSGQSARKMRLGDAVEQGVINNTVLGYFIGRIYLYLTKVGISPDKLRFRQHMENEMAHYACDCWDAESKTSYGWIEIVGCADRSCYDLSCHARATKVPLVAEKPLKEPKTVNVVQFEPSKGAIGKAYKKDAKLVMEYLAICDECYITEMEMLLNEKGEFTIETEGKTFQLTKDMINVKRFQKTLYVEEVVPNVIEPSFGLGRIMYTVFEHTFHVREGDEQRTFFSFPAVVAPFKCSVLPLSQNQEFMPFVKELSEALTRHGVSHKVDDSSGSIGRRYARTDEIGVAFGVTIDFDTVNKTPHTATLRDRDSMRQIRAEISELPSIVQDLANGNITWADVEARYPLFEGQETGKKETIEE


Molecular target: T1, human glycyl-tRNA synthetase, wild type …
Test: in vitro IP: Fc-fused Nrp1 domain constructs on Protein A resin, recombinant GlyRS added, blot GlyRS

binding result	Binder
no binding	b2 (on Fc) (Fc fusion, also called Nrp1 b2 domain (res. Lys425-Phe643) fused to human IgG Fc; not shown: C-terminal human IgG Fc domain (and any V5-His tag from the vector); The CD33 signal peptide is cleaved on secretion) KITDYPCSGMLGMVSGLISDSQITSSNQGDRNWMPENIRLVTSRSGWALPPAPHSYINEWLQIDLGEEKIVRGIIIQGGKHRENKVFMRKFKIGYSNNGSDWKMIMDDSKRKAKSFEGNNNYDTPELRTFPALSTRFIRIYPERATHGGLGLRMELLGCEVEAPTAGPTTPNGNLVDECDDDQANCHSGTGDDFQLTGGTTVLATEKPTVIDSTIQSEF
no binding	c-Fc (drawn as the c box on Fc) (Fc fusion, also called Nrp1 c domain (res. Thr589-Asp840) fused to human IgG Fc; not shown: C-terminal human IgG Fc domain (and any V5-His tag from the vector); The CD33 signal peptide is cleaved on secretion) TAGPTTPNGNLVDECDDDQANCHSGTGDDFQLTGGTTVLATEKPTVIDSTIQSEFPTYGFNCEFGWGSHKTFCHWEHDNHVQLKWSVLTSKTGPIQDHTGDGNFIYSQADENQKGKVARLVSPVVYSQNSAHCMTFWYHMSGSHVGTLRVKLRYQKPEEYDQLVWMAIGHQGDHWKEGRVLLHKSLKLYQVIFEGEIGKGNLGGIAVDDISINNHISQEDCAKPADLDKKNPEIKIDETGSTPGYEGEGEGD
